Experimental data from patent US20240317842A1 (HOSPITAL FOR SICK CHILDREN, published 2024).

Target: T1, 32-N MB.v3
T1 construct: Self-assembled apoferritin nanocage (Multabody), plasmids co-transfected 3:1:1; monomeric IgG1 Fc chain at the C-terminus of C-ferritin, which dimerises in the particle; also called Multabody.v3; T-01 MBv2
Assay: BLI, His-tagged FcγRIIa on Ni-NTA biosensors, Multabody in solution [8f]

B1: FcRIIa (receptor, human, UniProt P12318 34-217, looked up)
receptor chain: QAAAPPKAVLKLEPPWINVLQEDSVTLTCQGARSPESDSIQWFHNGNLIPTHTQPSYRFKANNNDSGEYTCQTGQTSLSDPVHLTVLSEWLVLQTPHLEFQEGETIMLRCHSWKDKPLVKVTFFQNGKSQKFSHLDPTFSIPQANHSHSGDYHCTGNIGYTLFSSKPVTITVQVPSMGSSSPMG
notes: His-tagged ligand loaded on Ni-NTA biosensors; also called FcγRIIa
binding result: no binding
